# In the supplement of paper PMC10266784:
# B1: library; numbered along this chain (parent)
# chain: MAAAAAAAAEQQSSNGPVKKSMREKAVERRSVNKEHNSNFKAGYIPIDEDRLHKTGLRGRKGNLAICVIILLFILAVINLIITLVIWAVIRIGPNGCDSMEFHESGLLRFKQVSDMGVIHPLYKSTVGGRRNENLVITGNNQPIVFQQGTTKLSVENNKTSITSDIGMQFFDPRTQNILFSTDYETHEFHLPSGVKSLNVQKASTERITSNATSDLNIKVDGRAIVRGNEGVFIMGKTIEFHMGGNMELKAENSIILNGSVMVSTTRLPSSSSGDQLGSGDWVRYKLCMCADGTLFKVQVTSQNMGCQISDNPCGNTH
# Variants of: B1
# Test: SGCB cell-surface expression functional score (HA stain, bin4 vs bin1, normalised to synonymous) (log10 ratio); higher = more cell-surface SGCB (functional)
# Method in brief: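 Human beta-sarcoglycan, tagged with HA and fused to YFP, was built into codon-saturation libraries and delivered by lentivirus at MOI <0.1 into HEK293 cells that stably express alpha-, gamma- and delta-sarcoglycan. After 72 hours, YFP-positive cells were sorted and grown for 5–7 days, then stained on ice with Alexa Fluor 647 anti-HA, fixed, sorted into four 5% intensity bins and amplicon-sequenced. Each variant's functional score is the log ratio of its frequency in the highest bin to that in the lowest bin, taken as the median across codons and transductions. Transductions were done in duplicate, and synonymous variants were scaled per section to mean 0, SD 0.5.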
row,Variant,SGCB cell-surface expression functional score (log10)
1,MAAAAAAAAEQQSSNGPVKKSMREKAVERRSVNKEHNSNFKAGYIPIDEDRLHKTGLRGRKGNLAICVIILLFILAVINLIITLVIWAVIRIGPNGCDSMEFHESGLLRFKQVSDMGVIHPLYKSTVGGRRNENLVITGNNQPIVFQQGTTKLSVENNKTSITSDIGMQFFDPRTQNILFSTDYETHEFHLPSGVKSLNVQKASTERITSNATSDLNIKVDGRAIVRGNEGVFIMGKTIEFHMGGNMELKCENSIILNGSVMVSTTRLPSSSSGDQLGSGDWVRYKLCMCADGTLFKVQVTSQNMGCQISDNPCGNTH [A251C],0.59
2,MAAAAAAAAEQQSSNGPVKKSMREKAVERRSVNKEHNSNFKAGYIPIDEDRLHKTGLRGRKGNLAICVIILLFILAVINLIITLVIWAVIRIGPNGCDSMEFHESGLLRFKQVSDMGVIHPLYKSTVGGRRNENLVITGNNQPIVFQQGTTKLSVENNKTSITSDIGMQFFDPRTQNILFSTDYETHEFHLPSGVKSLNVQKASTERITSNATSDLNIKVDGRAIVRGNEGVFIMGKTIEFHMGGNMELKEENSIILNGSVMVSTTRLPSSSSGDQLGSGDWVRYKLCMCADGTLFKVQVTSQNMGCQISDNPCGNTH [A251E],-1.22
3,MAAAAAAAAEQQSSNGPVKKSMREKAVERRSVNKEHNSNFKAGYIPIDEDRLHKTGLRGRKGNLAICVIILLFILAVINLIITLVIWAVIRIGPNGCDSMEFHESGLLRFKQVSDMGVIHPLYKSTVGGRRNENLVITGNNQPIVFQQGTTKLSVENNKTSITSDIGMQFFDPRTQNILFSTDYETHEFHLPSGVKSLNVQKASTERITSNATSDLNIKVDGRAIVRGNEGVFIMGKTIEFHMGGNMELKDENSIILNGSVMVSTTRLPSSSSGDQLGSGDWVRYKLCMCADGTLFKVQVTSQNMGCQISDNPCGNTH [A251D],-0.84
4,MAAAAAAAAEQQSSNGPVKKSMREKAVERRSVNKEHNSNFKAGYIPIDEDRLHKTGLRGRKGNLAICVIILLFILAVINLIITLVIWAVIRIGPNGCDSMEFHESGLLRFKQVSDMGVIHPLYKSTVGGRRNENLVITGNNQPIVFQQGTTKLSVENNKTSITSDIGMQFFDPRTQNILFSTDYETHEFHLPSGVKSLNVQKASTERITSNATSDLNIKVDGRAIVRGNEGVFIMGKTIEFHMGGNMELTAENSIILNGSVMVSTTRLPSSSSGDQLGSGDWVRYKLCMCADGTLFKVQVTSQNMGCQISDNPCGNTH [K250T],0.83
5,MAAAAAAAAEQQSSNGPVKKSMREKAVERRSVNKEHNSNFKAGYIPIDEDRLHKTGLRGRKGNLAICVIILLFILAVINLIITLVIWAVIRIGPNGCDSMEFHESGLLRFKQVSDMGVIHPLYKSTVGGRRNENLVITGNNQPIVFQQGTTKLSVENNKTSITSDIGMQFFDPRTQNILFSTDYETHEFHLPSGVKSLNVQKASTERITSNATSDLNIKVDGRAIVRGNEGVFIMGKTIEFHMGGNMELQAENSIILNGSVMVSTTRLPSSSSGDQLGSGDWVRYKLCMCADGTLFKVQVTSQNMGCQISDNPCGNTH [K250Q],0.65
6,MAAAAAAAAEQQSSNGPVKKSMREKAVERRSVNKEHNSNFKAGYIPIDEDRLHKTGLRGRKGNLAICVIILLFILAVINLIITLVIWAVIRIGPNGCDSMEFHESGLLRFKQVSDMGVIHPLYKSTVGGRRNENLVITGNNQPIVFQQGTTKLSVENNKTSITSDIGMQFFDPRTQNILFSTDYETHEFHLPSGVKSLNVQKASTERITSNATSDLNIKVDGRAIVRGNEGVFIMGKTIEFHMGGNMELFAENSIILNGSVMVSTTRLPSSSSGDQLGSGDWVRYKLCMCADGTLFKVQVTSQNMGCQISDNPCGNTH [K250F],1.23
7,MAAAAAAAAEQQSSNGPVKKSMREKAVERRSVNKEHNSNFKAGYIPIDEDRLHKTGLRGRKGNLAICVIILLFILAVINLIITLVIWAVIRIGPNGCDSMEFHESGLLRFKQVSDMGVIHPLYKSTVGGRRNENLVITGNNQPIVFQQGTTKLSVENNKTSITSDIGMQFFDPRTQNILFSTDYETHEFHLPSGVKSLNVQKASTERITSNATSDLNIKVDGRAIVRGNEGVFIMGKTIEFHMGGNMELRAENSIILNGSVMVSTTRLPSSSSGDQLGSGDWVRYKLCMCADGTLFKVQVTSQNMGCQISDNPCGNTH [K250R],0.59
8,MAAAAAAAAEQQSSNGPVKKSMREKAVERRSVNKEHNSNFKAGYIPIDEDRLHKTGLRGRKGNLAICVIILLFILAVINLIITLVIWAVIRIGPNGCDSMEFHESGLLRFKQVSDMGVIHPLYKSTVGGRRNENLVITGNNQPIVFQQGTTKLSVENNKTSITSDIGMQFFDPRTQNILFSTDYETHEFHLPSGVKSLNVQKASTERITSNATSDLNIKVDGRAIVRGNEGVFIMGKTIEFHMGGNMELVAENSIILNGSVMVSTTRLPSSSSGDQLGSGDWVRYKLCMCADGTLFKVQVTSQNMGCQISDNPCGNTH [K250V],0.37
9,MAAAAAAAAEQQSSNGPVKKSMREKAVERRSVNKEHNSNFKAGYIPIDEDRLHKTGLRGRKGNLAICVIILLFILAVINLIITLVIWAVIRIGPNGCDSMEFHESGLLRFKQVSDMGVIHPLYKSTVGGRRNENLVITGNNQPIVFQQGTTKLSVENNKTSITSDIGMQFFDPRTQNILFSTDYETHEFHLPSGVKSLNVQKASTERITSNATSDLNIKVDGRAIVRGNEGVFIMGKTIEFHMGGNMELSAENSIILNGSVMVSTTRLPSSSSGDQLGSGDWVRYKLCMCADGTLFKVQVTSQNMGCQISDNPCGNTH [K250S],0.33
